This note sets out measurements from US20240092879A1.

A word on the Kd: it is the free concentration of one partner at which half of the binding sites on the other are occupied at equilibrium, for simple one-to-one binding. Usually koff stands for the rate constant with which the complex falls apart. The low end stands for a long-lived complex, the high end for a short-lived complex. Usually kon stands for the rate constant with which the complex forms.

Test [1] deals with Centruroides sculpturatus whole venom (toxic components CsEM1a and CsEd, ~10% of the venom). Kind of test: cell-based or functional assay.
Test [2] addresses CsEd toxin from Centruroides sculpturatus venom (Centruroides sculpturatus). Description: SPR (Biacore X), toxin on CM5 chip, scFv injected, 25 C, Langmuir 1:1. For orientation: Surface plasmon resonance follows binding to a sensor surface in real time, without labels.
Test [3] concerns the target CsEM1a toxin from Centruroides sculpturatus venom (Centruroides sculpturatus). The description is as above.

Chain of CsEM1a toxin from Centruroides sculpturatus venom (Centruroides sculpturatus) (P56646 whole entry): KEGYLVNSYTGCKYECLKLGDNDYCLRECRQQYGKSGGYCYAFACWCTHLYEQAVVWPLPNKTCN
Chain of scFv 10FG2 (SEQ. ID. NO: 1) (scFv): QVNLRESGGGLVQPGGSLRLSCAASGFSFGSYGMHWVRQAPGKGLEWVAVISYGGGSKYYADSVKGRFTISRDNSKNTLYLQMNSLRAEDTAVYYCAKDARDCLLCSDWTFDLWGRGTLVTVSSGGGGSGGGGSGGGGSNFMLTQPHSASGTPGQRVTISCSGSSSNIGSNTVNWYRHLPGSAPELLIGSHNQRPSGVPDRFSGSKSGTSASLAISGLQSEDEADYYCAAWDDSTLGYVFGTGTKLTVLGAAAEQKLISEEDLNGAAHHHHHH

Consider scFv 10FG2 (SEQ. ID. NO: 1), for which, in test [1], the Survivors/Total, mixing test, 2 LD50, molar ratio toxin:scFv 1:5 (survivors of 6 mice) turned out to be 6; the Survivors/Total, mixing test, 3 LD50, molar ratio toxin:scFv 1:3.3 (survivors of 6 mice) stood at 6; the Survivors/Total, mixing test, 4 LD50, molar ratio toxin:scFv 1:2.5 (survivors of 6 mice) turned out to be 6; the Survivors/Total, mixing test, 5 LD50, molar ratio toxin:scFv 1:2 (survivors of 6 mice) was found to be 6. In test [1], the Survivors/total, mice injected with venom premixed with scFv, 2 LD50, molar ratio toxin:scFv 1:10 (survivors of 6 mice) amounted to 6. In test [2], the Kd came out at 1.84 nM; the TR (min), residence time came to 49 min; the koff was determined as 0.00034 s⁻¹; the kon amounted to 185000 M⁻¹ s⁻¹. In test [3], the Kd was determined as 1.1 nM; the TR (min), residence time was found to be 63 min; the koff worked out at 0.000261 s⁻¹; the on-rate (kon) stood at 237000 M⁻¹ s⁻¹.
